# Test results: patent US20130018176A1, “METHODS OF PRODUCING HYBRIDOMAS AND MONOCLONAL ANTIBODIES AND ANTIBODIES PRODUCED THEREBY” (AMGEN INC., priority 2007, published 2013)
# Read-outs that look alike come from different tables or passages of the source.
# Columns and labels:
# [1] = Biological activity of hepcidin variants; conditions: chemically synthesized hepcidin variants
# Excerpt: A number of hepcidin variants were chemically synthesized according to the general procedure described in Example 4. A variant of hepcidin lacking the five amino acids at the N-terminus, designated “hepcidin 20” or “hepc20,” was synthesized. A linear hepcidin variant in which all eight cysteine residues were replaced with 2-aminobutyric acid, thus completely abolishing the ability to form disulfide bonds, was also synthesized. A C1-C8, C3-C6 hepcidin variant, in which cysteines 2, 4, 5 and 7 were substituted with 2-aminobutyric acid to allow formation of only two disulfide bonds (C1-C8 and C3-C6), was also synthesized.
# Similar results were produced using hepcidin containing its native cysteine residues, when the molecule was in a fully-reduced state (i.e., no disulfide connectivity). This reduced material was not stable, however, and regained biological activity over time.
# human hepcidin [2] = target: T1, human hepcidin (Homo sapiens, UniProt P81172); test: Antibody neutralization of AAV-delivered human hepcidin in mice; type: in vivo; conditions: 1 mg/mouse
# Method: AAV-mediated human hepcidin expression in mice produces a microcytic, hypochromic anemia consistent with iron deprivation. The activity of anti-human hepcidin antibodies was evaluated in vivo in these mice overexpressing human hepcidin. Male C57B1/6 mice were injected with AAV (1.5×10^12 particles/mouse, I.V.) containing expression cassettes for either human hepcidin or beta-galactosidase (β-gal) as a negative control. The mice were left for two weeks to allow constitutive production of huHepc before being treated with 1 mg/mouse of Ab 2.7 or isotype control (muIgG1) at various dosing frequencies (1×, 2× and 4× per week) as shown in FIG. 12A. Blood was drawn on the fifth day for serum iron levels and determination of early red blood cell (reticulocyte) characteristics (reticulocyte count, reticulocyte hemoglobin content (CHr), and reticulocyte mean cell volume (Retic. MCV))
# Statistical comparisons to β-gal injected animals with isotype control treatment were determined to look for restoration of normal red cell characteristics (ANOVA with Dunnett's post-hoc test).
# human hepcidin [3] = target: T1, human hepcidin; conditions: in vivo
# [4] = target: T2, E. coli-derived human hepcidin (Homo sapiens, UniProt P81172); test: Biacore concurrent binding to hepcidin captured on antibody 1S1 surface (sandwich pairing); conditions: 20 nM hepcidin on 1S1 surface, then 50 nM antibody
# T2 construct: The pro-region of the protein was enzymatically cleaved by incubation with Kex protease; made in house; host or cells: E. coli
# T2 sequence (P81172 60-84 limits assumed): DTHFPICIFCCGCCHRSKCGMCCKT
# Method: Using Biacore analysis, a surface coated with antibody 1S1 was tested for the concurrent binding of hepcidin and another antibody (FIG. 28). Immobilization of anti-Hepc antibody 1S1 to the sensor chip surface was performed according to manufacturer's instructions using a continuous flow of 0.005% P-20/PBS buffer. Briefly, carboxyl groups on the sensor chip surfaces were activated by injecting 60 μL of a mixture containing 0.2 M N-ethyl-N′-(dimethylaminopropyl)carbodiimide (EDC) and 0.05 M N-hydroxysuccinimide (NHS). This was followed by injecting 1S1 diluted in 10 mM acetate, pH 4.0 at concentrations between 20 μg/mL. Excess reactive groups on the surfaces were deactivated by injecting 60 μL of 1 M ethanolamine. Final immobilized levels were 5,000-6,000 resonance units (RU) for the Ab 1S1 surface. A blank, mock-coupled reference surface was also prepared on the sensor chip. 20 nM E. coli-derived human hepcidin was injected over and bound to the 1S1 antibody surface. Then 50 nM antibody 2.7, 23F11, 26F11, and 1S1 were injected over the hepcidin/1S1 surface. After the antibody injection, the surfaces were regenerated by injecting 30 μL 10 mM HCl pH 2.0.
# synthetic human hepcidin = target: T3, synthetic human hepcidin (Homo sapiens, UniProt P81172); test: Iron-responsive beta-lactamase assay in 293/Fpn/BLA cells; type: cell-based; conditions: 50 ng/mL synthetic human hepcidin, 2.5 ug/mL ferric citrate, read-out: EC50, decreased intracellular concentration of iron
# T3 construct: made in house; host or cells: chemical synthesis (Fmoc solid phase), oxidatively folded
# T3 sequence (P81172 60-84 limits assumed): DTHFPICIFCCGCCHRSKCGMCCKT
# Method: The effect of anti-human hepcidin antibodies on this hepcidin-mediated iron sequestration was evaluated in vitro. […] These 293/Fpn/BLA cells, taken from a 70-80% confluent culture, were plated at 2.8×10^5 cells/mL in DMEM (Invitrogen Cat#11965) 5% FBS (Invitrogen Cat#10099-141) PSQ (Invitrogen Cat#10378-016), 90 uL/well (25,000 cells/well) in BioCoat Poly-D Lysine coated plates (Becton-Dickinson Cat#35-6640) and incubated at 37C with 5% CO2. At the end of the same day, a solution of assay medium (DMEM 5% FBS PSQ) with 100 ug/mL doxycycline was made, 10 uL/well of it added to the plate, and the plate incubated overnight or for at least 20 hours. […] Mixtures were added at 100 uL/well and incubated overnight at 37C, 5% CO2 in a cell culture incubator. Plates were then removed from the incubator and equilibrated to room temperature for 10 minutes before adding 20 uL/well of the prepared Invitrogen GeneBlazer CCF4 A/M development reagent (Invitrogen Kit# K1085) and incubating for 90 minutes in the dark. Development reagent was also added to 16 wells of a control assay plate without cells containing 100 uL assay medium (DMEM 5% FBS PSQ) and incubated for the same time. Blue & Green fluorescence signals were then read on an Envision Multilabel Reader (Perkin-Elmer Inc.) by exciting at 409 nm and reading emissions at 447 nm (blue) and 520 nm (green).
# human hepcidin [5] = target: T4, human hepcidin (Homo sapiens, UniProt P81172); test: Neutralization of injected human hepcidin in mice (hypoferremic response); type: in vivo; conditions: female C57BL/6 mice; for protection from the hypoferremic response (serum iron): serum iron two hours later
# T4 construct: The pro-region of the protein was enzymatically cleaved by incubation with Kex protease; made in house; host or cells: E. coli
# T4 sequence (P81172 60-84 limits assumed): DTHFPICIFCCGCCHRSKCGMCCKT
# Method: Activity of anti-human hepcidin antibodies was evaluated in vivo in mice that were administered human hepcidin in an amount sufficient to generate a hypoferremic response. On day 0, female C57BL/6 mice were injected subcutaneously with a murine monoclonal antibody (Ab2.7) directed against human hepcidin. Control mice received murine IgG1 as an isotypic control. At day 3, the mice received a single intraperitoneal injection of 25 μg E. coli-derived recombinant human Hepcidin (rhHepc). Serum iron levels were analyzed two hours later. […] Statistics represent ANOVA with a Dunnett's post-hoc test comparing all groups against the saline control.
# [6] = target: T5, mature human hepcidin (SEQ ID NO: 9) (Homo sapiens, UniProt P81172); test: Epitope specificity: antibody binding to immobilized hepcidin surface after pre-complex with hepcidin variants (BIAcore); conditions: interpretation of Table 6
# T5 construct: made in house; host or cells: recombinant
# T5 sequence (P81172 60-84): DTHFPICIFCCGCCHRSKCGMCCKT
# Method: (§1) The epitope specificity of anti-human hepcidin antibodies was evaluated by assessing ability of the antibodies to bind to mature human hepcidin (SEQ ID NO: 9) after pre-complex formation with different hepcidin variants.
# (§2) Recombinant hepcidin was immobilized on a CM5 chip according to manufacturer's instructions at a flow rate 10 μL/min of running buffer (DPBS: Dulbecco's Phosphate Buffer Saline1X, GIBCO 14190, with 0.005% BIAcore surfactant P-20). The carboxylated matrix of the sensor chip was first activated with a 100 μL injection of 1:1 mixture of EDC (75 mg/mL N-ethyl-N-(dimethylamine-propyl)carbodiimide in water, from Biacore) and NHS (11.5 mg/mL N-hydroxysuccinimide in water, from Biacore). 180 μL of rhHepc (˜20 μg/ml in 10 mM Na-acetate pH4.0) was injected to immobilize onto the sensor chip at 30 μL/min. The excess reactive groups of the sensor chip were deactivated with an injection of 100 μL of ethanolamine (1.0M, from Biacore).
# (§3) Forms of hepcidin used for the pre-complex were: correctly folded hepcidin as a positive control, the C1-C8, C3-C6 hepcidin variant (see Example 9), hepcidin 20 (N-terminally truncated, see Example 9) and linear hepcidin (Example 9). 1 nM solutions of antibody (2.41, 2.7, 43, and R9) were preincubated with 10 nM of each antigen at room temperature for several hours before run through the immobilized hepcidin surface. The binding signal obtained was proportional to the concentration of free antibody in solution at equilibrium.
# (§4) Some antibodies require the five amino acids at the N-terminus of the molecule (e.g. Ab43 and to a lesser extent, R9).
# [7] = test system: mature human hepcidin (SEQ ID NO: 9); test: as above; conditions: interpretation of Table 6
# Method: as §1, §2, §3, §4
# human hepcidin [8] = target: T1, human hepcidin; test: Combination of anti-hepcidin antibody and darbepoetin alfa in viral hepcidin over-expression model; type: in vivo; conditions: AAV-human hepcidin mice
# Method: Male C57BL/6 mice were injected with AAV (5×10^12 particles/mouse, I.V.) containing genes coding for either human hepcidin or GFP as an expression control (n=5 per group). After allowing two weeks to establish constitutive protein expression, mice were bled to determine baseline hemoglobin (Hb) levels, then treated with Ab 2.7 (1 mg/mouse) or isotype control at various dose frequencies. On the day after the first dose, they were treated with darbepoietin alfa ([…], subcutaneous). A schematic of the dosing schedule appears in FIG. 15A.
# Neutralization of hepcidin restores responsiveness to darbepoetin alfa. […] (See FIG. 15D.) Antibody dose and proximity of antibody dose to darbepoietin alfa treatment affected overall Hb response to anti-hepcidin antibody treatment, as shown in FIG. 15E (results varying from the control where p<0.01 by ANOVA with Dunnett's post-hoc test are noted with double asterisks).
molecule,measurement,setting,value
hepc20: variant of hepcidin lacking the five amino acids at the N-terminus (SEQ ID NO: 96) (ICIFCCGCCHRSKCGMCCKT),biological activity,[1],severely diminished biological activity
"Antibody 2.7: murine human hepcidin-specific monoclonal antibody raised against KLH-conjugated hepcidin; CDRs SEQ ID NOs: 28-33 (antibody, V domains shown) VH: QIQLVQSGPELKKPGETVKISCKASGYTFTTYGMSWVKQAPGKGLKWMGWINTYSGVPTYADDFKGRFAFSLETSASTAYLQINNLKNEDTATYFCGRDHYYGEVAYWGQGTLVTVSA VL: DIVLTQSPASLAVSLGQRATISCRASESVDSYGNSFMHWYQQKPGQPPKLLIYRASNLESGIPARFSGSGSRTDFTLTINPVEADDVATYYCHQSNEEYTFGGGTKLEIK",Serum iron levels,"human hepcidin [2]; AAV-human hepcidin male C57B1/6 mice, 4× per week",restored to normal
same,reticulocyte mean cell volume (Retic. MCV),"human hepcidin [2]; AAV-human hepcidin mice, 1× dose",microcytosis is still present
same,reticulocyte hemoglobin content (CHr),"human hepcidin [2]; AAV-human hepcidin mice, 1× dosing",hypochromicity is still seen
same,reticulocyte mean cell volume (Retic. MCV),"human hepcidin [2]; AAV-human hepcidin mice, 2× dose",restores normal volume
same,reticulocyte hemoglobin content (CHr),"human hepcidin [2]; AAV-human hepcidin mice, 2× dosing",normal
same,reticulocyte mean cell volume (Retic. MCV),"human hepcidin [2]; AAV-human hepcidin mice, 4× dose",restores normal volume
same,reticulocyte hemoglobin content (CHr),"human hepcidin [2]; AAV-human hepcidin mice, 4× dosing",normal
same,reticulocyte production (reticulocyte count),"human hepcidin [2]; AAV-human hepcidin mice, all dosing frequencies (1×, 2×, 4× per week)",increased reticulocyte production
same,response to darbepoietin alfa (Hb levels),human hepcidin [3],did not respond
same,responsiveness to darbepoietin alfa (hemoglobin levels),human hepcidin [3],restored responsiveness
same,ability to bind hepcidin concurrently with 1S1 (sandwich pair),[4],not able to form a sandwich pair with 1S1
same,EC50,synthetic human hepcidin,17 nM
same,hypoferremia (serum iron),"human hepcidin [5]; 0.25 mg antibody s.c. day 0, 25 μg rhHepc i.p. day 3",reduction in hypoferremia
same,protection from the hypoferremic response (serum iron),"human hepcidin [5]; 0.5 mg antibody s.c. day 0, 25 μg rhHepc i.p. day 3",statistically significant protection from the hypoferremic response
same,protection from the hypoferremic response (serum iron),"human hepcidin [5]; 1 mg antibody s.c. day 0, 25 μg rhHepc i.p. day 3",statistically significant protection from the hypoferremic response
same,neutralization of hypoferremic response,human hepcidin [5]; lower doses (0.25 and 0.1 mg) of antibody,non-neutralizing doses
same,"Binding to Solution Epitopes, Folded Hepcidin",[6],++++ (0% antibody binding to the hepcidin surface and therefore 100% inhibition by hepcidin in solution)
same,"Binding to Solution Epitopes, C1-C8 C3-C6",[7],++++ (0% antibody binding to the hepcidin surface and therefore 100% inhibition by hepcidin in solution)
same,"Binding to Solution Epitopes, Linear Hepcidin",[7],− (100% antibody binding to the hepcidin surface and therefore no inhibition by hepcidin in solution)
same,response to darbepoietin alfa (increase in Hb levels),human hepcidin [8]; antibody 1 mg/mouse Monday-Wednesday-Friday dosing plus darbepoietin alfa,partial response
same,response to darbepoietin alfa (Hb levels),human hepcidin [8]; antibody 1 mg/mouse daily (Monday through Friday) plus darbepoietin alfa,maximal response
same,Hb levels,human hepcidin [8]; antibody Monday-Wednesday-Friday dosing without darbepoietin alfa,no rise in Hb levels
same,response to darbepoietin alfa (Hb levels),human hepcidin [8]; two and three doses of antibody plus darbepoietin alfa,partial response
